From the DeepSol protein solubility set come the findings set out here.

The nature of the series: soluble on expression in E. coli; label from the status in PepcDB or PDB records.
Regarding “GDTSWIKTGKVAWDWWNDWNLKGVPFKAGINMDTYKYYIDFASRNGLEFIVLDEGWYDPKSGDMLTVIPELDLPELIAYGKSKGVEIVLWTVFNVLDSQLEAACKKYADMGIKGFKVDFLDRDDQTAVEMVYRIAEMTARYKLTLDLHGIYKPTGINRTYPHII”, the “soluble on expression in E. coli” value is given as “not soluble”. For “MRIGLFTDTYFPQVSGVATSIRTLKEELEKEGHEVYIFTTTDRDVKRFEDPTIIRLPSVPFVSFTDRRVVYRGLISSYKIAKHYNLDIIHTQTEFSLGLLGKMIGKALRIPVVHTYHTQYEDYVSYIANGKIIRPSMVKPLLRGYLKDLDGVICPSRIVLNLLEGYEVTIPKRVIPTGIPLEKYIRDDITAEEVTNLKAELGIAGDETMLLSLSRISYEKNIQAIINQMPAILAENAKIKLIIVGNGPYLQDLKHLAMQLEVDKHVTFTGMVPHDKVALYYKACDFFISASTSETQGLTYIESLASGTPIIAHGNPYLDDVVTDKMFGTLYYAETDLTDAIIDAILKTPVMDKRLLAKKRYEISAQHFGKSIYTFYLDTLIARNSKEAQKLSLYLNHSGKSSSLKLVQGAIHLPKRAAKVTAITSVKVVKAPIKLVHAIKDFLD” the value was “not soluble”; for “SEEITDGVNNMNLATDSQKKNRIQVSNTKKPLFFYVNLAKRYMQQYNDVELSALGMAIATVVTVTEILKNNGFAVEKKIMTSIVDIKDDARGRPVQKAKIEITLVKSEKFDELMAAANEEKEDAETQVQN”, “soluble”; for “MSLSFYERYLEYKNFDFENFFDQVTDRDIINIINKDRRLSELEFLMLLSKKAVKYLEPLAQKANRITVQNFGKVIFLYTPMYLANYCVNQCIYCGFNITNNIKRRKLTLDEVEKEAYAISSTGLRHILILTGESRKESPVQYIKDCVKILQKYFRSISIEVYPLEENEYAELIEAGVDGLTIYQEVYDEEKYKALHLKGPKRNYLYRLDAPERACKASMRNVNIGALLGLHDWRTEAFYTGLHADYLQNKYPDVEIGLSLPRIRPHPCGSFVPDCKVEDRDLVQIMIAYRLFMPRAGIAISTRERESLRNNLIGLGVTKMSAASSTEVGGHTLGDKSDGQFDVNDRRGVEEMRQMIYSKGYQPVFKDWQAEGHHHHHH”, “soluble”. On to “MGSDKIHHHHHHVKIALDPTPFHHSHTLLEFPRVVADLGYKYMQMTPHADFIPFYNHPKADDELVGQLNKACKDVGIEIASVLPVLRWSGPDEDAREAAVRYWKRVIQITVDLGVSTINTEFSGRPEKAEESERAFYRSMEELLPIIEREGLDLLIDPHPDDFVEEGLAAIRVIRGLNSKNVGLVYVASHSFHMKNAPLDIMRAAGDKLRLVHVADTMNHHASHGLRYITNPPGNPVRVHQHLKIGDGDVNWEEFFGGLQEIGFLDREDTVMVSSVFAEDENAAEVSRYQLVTMNNYIATAR”, for which the “soluble on expression in E. coli” value is reported as “not soluble”. The value for “AIAEEDEFIGEKTFQRYCAEFIKHSQQIGDSWEWRPSKDCSDGYMCKIHFQIKNGSVMSHLGASTHGQTCLPMEEAFELPLDDCEVIETAAASEVIKYEYHVLYSCSYQVPVLYFRASFLDGRPLTLKDIWEGVHECYKMRLLQGPWDTITQQEHPILGQPFFVLHPCKTNEFMTPVLKNSQKINKNVNYITSWLSIVGPVVGLNLPLSYAKATSQDERNVP” was “soluble”.

Turning to “GSHMSHLDNTMAIRLLPLPVRAQLCAHLDALDVWQQLATAVKLYPDQVEQISSQKQRGRSASNEFLNIWGGQYNHTVQTLFALFKKLKLHNAMRLIKDYVSEDLHKYI”, the “soluble on expression in E. coli” value is recorded as “soluble”. For “GMSSSGIEIAKPFVTATTNVLSTMAGIQPIPGQPYVKKNNVAKGDVSAVVGITGHKNGSISVTFTKQCAIAVVKAMLGDDIQDIIQDTKDAVGEVTNMISGQARAALSEMGMTFQGATPSVIMGDGHTISHVTKSPVIAIPFKTNHGEFTVEFCLE” the value was “soluble”; for “MKAKREALISLFHAIKEEKVDSDIIDLLLLINSIKGIYTTSSCSGRIGILEEPSLGAKPLSRWLIKVHRPMSFEEARDALKRAREGLIFLKSQPPIFHVVAETIENAKLVHEIGLASGFKYTTFKAISSRFLVEINGTEYLTVPLGKDGRIIASDEYLKFAISIGNKMLERGKSKLPRLRDNFEKIKKKLGEDPLFIQLKREILEILEHHHHHH”, “not soluble”. For the sequence “MSADAYHPPTTSPRLETLDVLSIGMSLDVFRQGQVWKALQEQNAAQAEALHVGSILPMDPKKYPTSADDKDMAYEKRQADALELGLKNFLEKWPIPTVTVVRGWDPSTPNLRFTPEETRESLSVKVNDLRVPAGLHWHRIANLQDGIICNDTPEGVLEALFSLFERNPDLPAVLVYANEGISMAGALSSRDVTLKSLGAVSGPRIPGTLTDAMVALIVGRPERVDWLRQFAPYTKVNENRIDPEFRGWGWRKPPVEFRPTPFIPQPWTERALEQWDALPVLARLHRPVSVPLTHPDTGERLKREALTAQLAAAWKTASAGLRPAPARLFYDGGLNATPLAELTPALGAAQSSLDLLDSRESYDLTQRLGDTGAASPFVGITLATMASYLNGDSSMVMPLRRKDQATLIGISSPTPGKKPVHDPFGVDLLPQTASGDGPPPSADPVAPASRLTTRLPPGEDYALEEFLSSLKPSTDWQDDL”, the “soluble on expression in E. coli” value is on record as “not soluble”. Regarding “GQSRERLVKWLQDAYAMEKEAETMMAAMASRIEHYPELKRRIEQHVEETQQQSAGVQRCLELLNGSIPTAKGMLSSVLASMHAAGNSMMTDEVTKGVGISYAFEHLEIASYRALVVAARSAGEQEVAQICEDILQQEIEMAEWLIEHQEAIVVAFLEREQLEGVGS”, the “soluble on expression in E. coli” value is on record as “soluble”.

Consider “MSLKKPLIVQKFGGTSVGSIERMQTVAEHIIKAKNDGNQVVVVVSAMAGETNRLVGLAQQVDSVPNARELDVLLSAGEQVSMALVAMTLHKMGYAARSLTGAQANIVTDNQHNDATIKHIDTRTITELLEQDFIVIVAGFQGINENGDITTLGRGGSDTSAVALAGALNADECQIFTDVDGIYTCDPRIVPSARKLDVIDFPSMEEMARKGAKVLHLPCVQYAWKHAVPLRVLSTFEVNQGSLIKGSAATHAVCGIALQRDMALIRVESESFPSIIKQCQMLGIEVCTTIDEPTHSAFVIKRDAYAKLQLVGADKIRGSEPVSLITKVGIQAGALVAHARQTLAQHGIDVRYVSASEQSSMLMLDPANVDRAANILHETYVTSEIPQEFGLKQTFLGEGHHHHHH”, for which the “soluble on expression in E. coli” value is given as “not soluble”. For “MSLESLVPYNETVSTEVQFAKALEKYKFDLLHAKSNFHDQDQEQNTADVNNQHLQTQAQSSSPFDIVQKFADIAAANAYSVLPDQLSSNIDDDVYDQDFTNWDLEMKFWRLVENLNYYRVFCYENEVFGKEKEIGELYAILDWLQYHSAGEREHDQILKDQLGNEDENGNGDEEEKLLGTRSKWINTRLSIENGVYDALSGKNSNDQLIQEMDVDAPLRSGMHVDAKDAELDSKNFQAIYKLVVLGEYTDAIEFANETGNHALAVILAGAISFVEDDDQVMELANEVEGEGNIKLSASTRDKTIWVRLVYKLSKNTNLDPNERLIYSYLSGGDISENLKRASDSYEESINILVRQLLTYSELQKMHLNSFVEFTPPAPQANSMKDILNIVSNSLGSRAAEESRHPVRILMAAIMLDDLDPIISDLNDSTNDNILRILVHASLFLALLRSPQNPEQLNALITLYISKLTENNQTELVPLYLSFIPDERDARETYSLILASITDKEQRRKQLEIAKGISQSHQQSPLPLLQSQPSSHSNEDTEMVPIDDVEQDKLVNVLRRTVERVMDETEEYYNPGNEPFAIVDSGSEGHHHHHH” the value was “soluble”; for “MSAMKKLVVLGGGYGGMRILQRLLPNDLPSDWEITLVDRLPYHCLKTEYYALAAGTASDHHLRVSFPEDPRLSTRYGSVSSIDLASKTVLFEEGEPLTYDTLIIGLGCEDKYHGVPGAKEHTYSIQSMEATRRTYEALNNVRPEGVVTIVGAGLSGVELASELRESRPDLTIKLLDRGDIILSMFPRRLSNYVQNWFIDHGVDIINKSNVTKVEEGAVYNHDERIESDAIIWTAGLEHHHHHH”, “soluble”; for “MALKAQNTISGKEGRLFLDGEEMAHIKTFEANVEKNKSEVNIMGRRMTGHKTTGANGTGTATFYKVTSQFVLIMMDYVKKGSDPYFTLQAVLDDASSGRGTERVTLYDVNFDSPKIAGLDVDSEALEEEVPFTFEDFDVPEQLKSTFLEHHHHHH”, “soluble”. As for “MQSETTSKHTDILTSLQLSLTPRRDPTFEETTTDEQTSVQIALSPCLNATIASSKYSLDDLDVSAQYLWDTAADNLIYTTSNAREIPIRTRPTTFLTKRMTEGLQVDVTGAPTSAWIAHPLTFEVIYHHLANILCATPVFYVPHPQLLIAVASHIVSPQLESWLSTFSTPLVKDALIYHEGFPAHIKSSAWQQPLHHMSSDQLSA”, the “soluble on expression in E. coli” value is listed as “not soluble”. The value for “SSLPLNAIEPCVICQGRPKNGCIVHGKTGHLMACFTCAKKLKKRNKPCPVCRQPIQMIVLTYFP” was “soluble”; that for “MGSDKIHHHHHHMTKRIMFTGGSGKAGRHVVQYLVEQGCQVLNIDTKPLDNPKVRTLITDITDSGQVFNALSSYMGLHEFDPSLRPQPVDAVVHFAAIPRIMITPDNEVFRINAMGTYNVIEAAVKLGIRKVIVASSETTYGLVFANEPRDPKYFPLDEEYDVDPMDSYALSKVVNEKTARAFAQRNGTDIYALRIGNVIEPHEYSLFPKWFADPGFRKRIAWSYIDARDLGQITLRAIEKDGLGYQVFNAANDDTSSDLPTAELLKRFYPNVPVKAALGEYETLLSNRKARDMLGFRPEHSWRKYVK” was “not soluble”; that for “MAHHHHHHMVLIKAKNNEGKTVGEGKFSPFCFVLYGDIQYGMIRANHGWYEERKLLKEAITKTNKIKPSFVVAMGDLANKFPIDELQNEQYKDLKTDFEQLDKSIDLYVFCGNHDVGNEPTHETISNFEHFWGDSYYSYIYNNCGFIILNSAVFFNDTQVQDLKEKQFLWLDETLKKMVSKNVKHKFLFLHHALMYDHIEEDENIGLIYGDKFRNYSEKNKFHIKKETRMVIYDMLKKYKVSHVFCAHLHANREKNIDANIKQITISAVGMQAASDQSGLMIVQVAEEGVDYKYYPFEFVPSFVKV” was “not soluble”. The value for “MGSDKIHHHHHHMKEVAIYIYMLAVKITGCLARIFPVKQKVVLLVSFPENSTAIIKQMNEMKVTPKTVVFYDPRVDVTGFNFDFIQLKPKKIKHFISLMFHLNTAKVVITDNYFVELAGLKERKNVTCIQIWHANGALKKFGWEDKAAQKRSARDKKRFQEVYRCFSKVLVGSDEMAAIFQRSFLLEDSHMLKLGIPRTDNFFNQQQLKENAERTNTKLHLSNKKKLLYAPTFRDEELHSTTLHLDIAKMKQALGNEYQLILKLHPSISNDLDEVVDDFVVYADKETPIETILPAVDILITDYSSIPFEFALLEKPMIFFTYDLEEYDKARGLSDGFLATIPGPFVHTTEELIQLIEQEAFDLEMVRAFAAKWNKYSDGHSSERFVSFLKEQLEK” was “not soluble”. The value for “MALHPAHPGAIIGHEAVLALLPRLTAQTLLFSGPEGVGRRTVARWYAWGLNRGFPPPSLGEHPDVLEVGPKARDLRGRAEVRLEEVAPLLEWCSSHPRERVKVAILDSAHLLTEAAANALLKLLEEPPSYARIVLIAPSRATLLPTLASRATEVAFAPVPEEALRALTQDPELLRYAAGAPGRLLRALQDPEGYRARMARAQRVLKAPPLERLALLRELLAEEEGVHALHAVLKRPEHLLALERAREALEGYVSPELVLARLALDLET” was “soluble”. Consider “MRKDRVTQGVDRIMQAIADKEFELGQAIPGEAKLAEFLDVSRPTMREVVRTLADRGVLEVVHGRGTFVAPLDHWSDVRSRVDFISRTLSPGEVGFHLTEVRRMIEVGSCGHAAARAEDCDLDRMQTALDAYDAALEAHDVAGIAKSDVEFHNAIFEATKNPVVTALMIPLEGELAASRLRTSAVSEVAERAQEHHRRIYSAIKASDEEGAKNAMRAHMSQTFDDLQRFVGEY”, for which the “soluble on expression in E. coli” value is given as “not soluble”.
